# Marks after values point to notes of the source that are not given here. Ends that are not written are not given here.
# B1: RNase A: bovine pancreatic ribonuclease A (type I-A) (protein, UniProt P61823 27-150, looked up)
# Ribonuclease pancreatic: KETAAAKFERQHMDSSTSAASSSNYCNQMMKSRNLTKDRCKPVNTFVHESLADVQAVCSQKNVACKNGQTNCYQSYSTMSITDCRETGSSKYPNCAYKTTQANKHIIVACEGNPYVPVHFDASV
# Tests used:
# Trp repressor protein = Trp repressor protein (Escherichia coli, UniProt P0A881)
# Method: The concentration of Trp repressor in these experiments was 20 μM; and in (B) the concentration of L-tryptophan in each SUPREX buffer was 200 μM.
# E. coli = assay type: cell-based
# Method: . […] In FIG. 10B, E. coli placed in various concentrations of urea for 30 minutes were studied at 23° C. (closed circles) and 15° C. (open circles).
# (closed circles) and 15° C. (open circles). 1 ml cultures of BL21-(DE3) E. coli were pelleted and resuspended in LB media containing various urea concentrations and incubated for 30 minutes at 15° C. and 23° C. The cells were then pelleted and resuspended in 1 ml of LB media, diluted 1000, plated on LB-agar plates, incubated at 37° C. overnight and the number of colonies were counted.
# [1] = cited from earlier work
# P22 Arc repressor = P22 Arc repressor (Salmonella phage P22, UniProt P03050); assay: SUPREX analysis of P22 Arc repressor in the absence and presence of cognate DNA; assay type: binding; settings: Arc dimer 12 μM, absence of DNA, 20 mM phosphate pH=7.4
# Excerpt: . At this concentration the stability of the Arc dimer is less than that detectable by SUPREX. Even with exchange times of several minutes, there is no transition detected in the SUPREX curve. The transition midpoint is shifted off scale to the left; […].
# [2] = SUPREX analysis of P22 Arc repressor, a homo-dimeric protein; assay type: physicochemical; settings: ΔGSUPREX adjusted to standard conditions (1 M dimer)
# [3] = SUPREX (H/D exchange detected by MALDI MS) stability of unpurified proteins in crude E. coli lysates; assay type: physicochemical
# [4] = conventional CD denaturation curves of purified proteins; assay type: physicochemical; settings: purified protein, pH 8 buffer, FIG. 10A
# Method: FIGS. 10A–10C depict a conventional denaturation curve by CD with purified protein in 0.15 M NaCl, 20 mM Na2HPO4, 20 mM CH3COONa, pH 8.
# [5] = cited from earlier work; remark: listed apart in the source
# [6] = SUPREX analysis of RNase A, normal protocol; assay type: physicochemical
# Method: Two different experimental protocols were employed for the SUPREX analysis of RNase A including one for normal analyses and one for high sensitivity analyses. H/D exchange reactions were initiated by combining 1 μL aliquots of a 100 μM solution of RNase A (fully protonated) in 20 mM sodium phosphate buffer (pH 7.4) with 9 μL volumes of 10 different deuterated exchange buffers containing 20 mM sodium phosphate (pD=7.4) and concentrations of GdmCl that varied between 0.5 and 4 M. After a specified exchange time (typically 65 minutes), a 1 μL aliquot of each exchange reaction was combined with 19 μL of a MALDI matrix solution. The MALDI matrix solution, which comprised an ice-cold, saturated, aqueous solution of SA containing 63% MeCN and 0.1% TFA (pH=3.0), effectively a quenched the H/D exchange reaction and prepared the sample for MALDI analysis. This matrix solution also included two internal mass standards, bovine ubiquitin (8566.1 Da) and hen egg lysozyme (14,303.7 Da). Subsequently, 1 μL of the quenched exchange reaction was spotted on a stainless steel MALDI plate and the solvent was evaporated under a gentle flow of air. […]
# (§1) For both normal and high sensitivity analyses 10 replicate MALDI mass spectra were collected and analyzed to determine an average change in mass relative to the fully protonated sample (ΔMass) at each [GdmCl]. […]
# [7] = high sensitivity SUPREX analysis of RNase A (micro-concentration step); assay type: physicochemical; settings: high sensitivity protocol
# Method: The high sensitivity SUPREX protocol outlined in FIG. 11 is similar to the SUPREX protocol disclosed above, with the exception that protein samples were subjected to a micro-concentration step after H/D exchange and prior to MALDI analysis. This micro-concentration step involved the use of a batch chromatography method utilizing 10 μL C18 SUPROTIPS™ from AmiKa (Columbia, Md.). It was preferred to quench the H/D exchange reaction with TFA (0.25% v/v) prior to binding the deuterated protein samples to the SUPROTIPS™. This facilitated preservation of the deuteration state of the protein. […]
# as §1
# Values for ΔM0, ΔM∞ and ΔGf were obtained by fitting the ΔMass versus [GdmCl] data to equation 1 using SigmaPlot and a nonlinear least squares analysis. value of 8.47 s^−1 was used, which was calculated based on the data of Bai et al (Bai et al., (1993) Proteins 17: 75–86), using the program SPHERE (Zhang, Ph.D. Thesis, Structural Biology and Molecular Biophysics, University of Pennsylvania); and an m value of 3.1 kcal mol^−1M^−1 was used, which was previously determined in other GdmCl-induced equilibrium unfolding experiments on RNase A (Pace et al., (1990) Biochem. 29: 2564–72). […]
molecule,measurement,setting,value
N[C@@H](Cc1c[nH]c2ccccc12)C(=O)O [L-tryptophan],ΔGBinding,Trp repressor protein,-3.8 kcal/mol
NC(N)=O [urea],viability of E. coli cells,E. coli,does not perturb the viability of the cells
"P22 Arc repressor: P22 Arc repressor, a homo-dimeric protein (MKGMSKMPQFNLRWPREVLDLVRKVAEENGRSVNSEIYQRVMESFKKEGRIGA; also: homo-dimeric protein; UniProt P03050 1-53, looked up)",previously reported ΔG value,"[1]; conventional CD denaturation studies (Bowie et al., 1989)",11.0 kcal/mol
same,maximum ΔGSUPREX value,P22 Arc repressor,< 4.0 kcal/mol
same,standard ΔG value,[2],11.3 ± 0.2 kcal/mol
"λ6–85: monomeric form of the N-terminal domain of λ repressor, wild type",ΔGf (kcal/mol) CD,"[1]; 25° C., purified protein, published values",−4.4 ± 0.2^b kcal/mol
same,previously reported experimental m value,[1]; measured from CD denaturation curves,2.1±0.1 kcal mol^−1 M^−1
same,ΔGf (kcal/mol) SUPREX,[3],-5.0 ± 0.4 kcal/mol
same,stability by CD denaturation (linear extrapolation method),[4],6.16 ± 0.13 kcal/mol
B1,m value,"[5]; GdmCl-induced equilibrium unfolding (Pace et al., 1990)",3.1 kcal mol^−1M^−1
same,ΔGf by conventional fluorescence denaturation,[5]; Pace et al.,-9.24 ± 0.64 kcal/mol
same,ΔGf from one SUPREX curve,"[6]; FIG. 12B, standard error of 0.2",-12.9 kcal/mol
same,average ΔGf value and standard deviation,[6]; three replicate SUPREX analyses,-12.4 ± 0.4 kcal/mol
same,average ΔGf value and standard deviation,[7]; 3 replicate SUPREX analyses,-12.0 ± 0.5 kcal/mol
same,ΔGf from one SUPREX curve,[7]; standard error of 0.2,-12.4 kcal/mol
